The text below walks through data of publication PMC3063768.

Experiment [1] deals with CA of isolated HIV-1 A14C/E45C cores (HIV-1). Briefly: cross-linking; isolated HIV-1 cores with double-cysteine mutant CA, with or without oxidizer; non-reducing SDS-PAGE, immunoblotting with rabbit anti-CA serum. Background: Immunoblotting shows a protein as a band on a membrane.
For experiment [2], the target named is HIV-1 CA P207C/T216C, tubular assemblies, non-oxidized (HIV-1). Briefly: cross-linking; preassembled double-cysteine mutant CA tubes oxidized with CuSO4/1,10-phenanthroline for 5 seconds, quenched with iodoacetamide and neocuproine; non-reducing SDS-PAGE, Coomassie Blue; with or without prior TRIM5α CC-SPRY (18 µM).
The target of experiment [3] is CA of isolated HIV-1 P207C/T216C cores, without oxidizer (HIV-1). Briefly: cross-linking; isolated HIV-1 cores with double-cysteine mutant CA, with or without oxidizer; non-reducing SDS-PAGE, immunoblotting with rabbit anti-CA serum.
The target in experiment [4] is HIV-1 capsid protein (CA), wild type, preassembled tubular assemblies (HIV-1). The experiment is described as follows: co-sedimentation; preassembled wild-type CA tubes (64 µM) incubated with TRIM5α CC-SPRY (0-20 µM) 1 hr at room temperature in 10 mM Tris pH 7.5, 330 mM NaCl, 1 mM TCEP, 5% glycerol; pelleted at 20,000 g 15 min; SDS-PAGE, Coomassie Blue, gel densitometry of pellet.

The target of experiment [5] is HIV-1 capsid-nucleocapsid (CA-NC), preassembled tubular assemblies (HIV-1). Briefly: co-sedimentation; preassembled CA-NC tubes (2 mg/ml or 10 µM, with TG50 oligonucleotide) incubated with TRIM5α CC-SPRY (0-20 µM) 1 hr at room temperature; pelleted at 20,000 g 15 min; SDS-PAGE, Coomassie Blue, gel densitometry of pellet.
For experiment [6], the target named is HIV-1 CA A14C/E45C, tubular assemblies (HIV-1). The experiment is described as follows: cross-linking; preassembled double-cysteine mutant CA tubes oxidized with CuSO4/1,10-phenanthroline for 5 seconds, quenched with iodoacetamide and neocuproine; non-reducing SDS-PAGE, Coomassie Blue; with or without prior TRIM5α CC-SPRY (18 µM).

For orientation: stoichiometry N means the number of molecules, sites or subunits per partner or assembly. On to “CA of isolated HIV-1 A14C/E45C cores (natural protein)”, for which the stoichiometry N in experiment [1] came to 6.
In turn, “HIV-1 CA P207C/T216C, tubular assemblies, non-oxidized (natural protein)” showed a stoichiometry N in experiment [2] of 3.
For “CA of isolated HIV-1 P207C/T216C cores, without oxidizer (natural protein)”, the stoichiometry N in experiment [3] worked out at 3.
Consider “Rhesus macaque TRIM5α coiled-coil and SPRY domains (TRIM5αrh CC-SPRY, residues 134–497) (from UniProt Q0PF16 134-497) (domain or fragment)”, for which the binding ratio (molar ratio of bound TRIM5αrh CC-SPRY to CA in the pellet) at 18 µM TRIM5αrh CC-SPRY in experiment [4] was determined as 0.41 molar ratio. Besides, in experiment [5], the binding ratio (molar ratio of bound TRIM5αrh CC-SPRY to CA-NC in the pellet) at 1 µM TRIM5αrh CC-SPRY and 10 µM CA-NC came out at 0.034 molar ratio; the binding ratio (molar ratio of bound TRIM5αrh CC-SPRY to CA-NC in the pellet) at 18 µM TRIM5αrh CC-SPRY was 0.21 molar ratio.
In turn, “HIV-1 CA A14C/E45C, tubular assemblies (natural protein)” registered a stoichiometry N in experiment [6] of 6.
